The text below walks through data of patent publication US20250327097A1, “ORGANISMS PRODUCING LESS CROTONIC ACID” (Global Bioenergies, priority 2021, published 2025).

B1: L222V-I283T-N285P-N287T-Q290E-S322T-N388M-K394R-C430A-i430aG-L432F-L434W-S436N-dG462 (protein)
chain: MFLKSLREQINLLKRQGDLRIINRPVDSYLEAAAIIRRSTETKAPVPLMTNIKGYPGCSIVGGLAALSSNPEYPLSRVAMSLGLSTTASAQSIVQYLIDGLKKTPYLPVEIDSNSAPCKQNILRGEDASLAHFPIPQVHQHDGNRYVNTWGVFIVESPDGQWCNWSIQRVQYLNDRQMIALVFPSQHISDIWEEWVKIGKPMPYALVQGCEPIVPYIAGLPVLERNVNEAEYIGALYGKGIEVVKCETHDLRVPASSEVVIEGYFAITREGVEGPFGEFAGYTPPETSLEPILSITAISWQDDPIWPVVAEGKPVDEYHTCTGIGDAAAIQNVLLTANLPVSFVWVPLYSACHLMIVSINRHWRQTHPDLTSEQLTKKVGDVIHQTRMSIKLPRIVVLDDDVDPADTESLLWALATRIHPERKRYFYESAIFPWLNCYSEEERHNRKGKRVIIDALLPENHGAISSFDYAYPDDIKQRVLMHWETDFSHD
B2: I283T-N285P-N287T-Q290E-S322T-N388M-S389H-K394R-C430A-i430aG-L432F-L434W-S436N-I453L-dG462 (protein)
chain: MFLKSLREQINLLKRQGDLRIINRPVDSYLEAAAIIRRSTETKAPVPLMTNIKGYPGCSIVGGLAALSSNPEYPLSRVAMSLGLSTTASAQSIVQYLIDGLKKTPYLPVEIDSNSAPCKQNILRGEDASLAHFPIPQVHQHDGNRYVNTWGVFIVESPDGQWCNWSIQRVQYLNDRQMIALVFPSQHISDIWEEWVKIGKPMPYALVQGCEPIVPYIAGLPLLERNVNEAEYIGALYGKGIEVVKCETHDLRVPASSEVVIEGYFAITREGVEGPFGEFAGYTPPETSLEPILSITAISWQDDPIWPVVAEGKPVDEYHTCTGIGDAAAIQNVLLTANLPVSFVWVPLYSACHLMIVSINRHWRQTHPDLTSEQLTKKVGDVIHQTRMHIKLPRIVVLDDDVDPADTESLLWALATRIHPERKRYFYESAIFPWLNCYSEEERHNRKGKRVILDALLPENHGAISSFDYAYPDDIKQRVLMHWETDFSHD
B3: I283T-N285P-N287T-Q290E-S322T-I330V-N388M-K394R-C430A-i430aG-L432F-L434W-S436N-dG462 (protein)
chain: MFLKSLREQINLLKRQGDLRIINRPVDSYLEAAAIIRRSTETKAPVPLMTNIKGYPGCSIVGGLAALSSNPEYPLSRVAMSLGLSTTASAQSIVQYLIDGLKKTPYLPVEIDSNSAPCKQNILRGEDASLAHFPIPQVHQHDGNRYVNTWGVFIVESPDGQWCNWSIQRVQYLNDRQMIALVFPSQHISDIWEEWVKIGKPMPYALVQGCEPIVPYIAGLPLLERNVNEAEYIGALYGKGIEVVKCETHDLRVPASSEVVIEGYFAITREGVEGPFGEFAGYTPPETSLEPILSITAISWQDDPIWPVVAEGKPVDEYHTCTGIGDAAAVQNVLLTANLPVSFVWVPLYSACHLMIVSINRHWRQTHPDLTSEQLTKKVGDVIHQTRMSIKLPRIVVLDDDVDPADTESLLWALATRIHPERKRYFYESAIFPWLNCYSEEERHNRKGKRVIIDALLPENHGAISSFDYAYPDDIKQRVLMHWETDFSHD
B4: E224P-I283T-N285P-N287T-Q290E-S322T-N388M-K394R-C430A-i430aG-L432F-L434W-S436N-dG462 (protein)
chain: MFLKSLREQINLLKRQGDLRIINRPVDSYLEAAAIIRRSTETKAPVPLMTNIKGYPGCSIVGGLAALSSNPEYPLSRVAMSLGLSTTASAQSIVQYLIDGLKKTPYLPVEIDSNSAPCKQNILRGEDASLAHFPIPQVHQHDGNRYVNTWGVFIVESPDGQWCNWSIQRVQYLNDRQMIALVFPSQHISDIWEEWVKIGKPMPYALVQGCEPIVPYIAGLPLLPRNVNEAEYIGALYGKGIEVVKCETHDLRVPASSEVVIEGYFAITREGVEGPFGEFAGYTPPETSLEPILSITAISWQDDPIWPVVAEGKPVDEYHTCTGIGDAAAIQNVLLTANLPVSFVWVPLYSACHLMIVSINRHWRQTHPDLTSEQLTKKVGDVIHQTRMSIKLPRIVVLDDDVDPADTESLLWALATRIHPERKRYFYESAIFPWLNCYSEEERHNRKGKRVIIDALLPENHGAISSFDYAYPDDIKQRVLMHWETDFSHD
B5: I283T-N285P-N287T-Q290E-S322T-N388M-S389H-K394R-C430A-i430aG-L432F-L434W-S436N-dG462 (protein)
chain: MFLKSLREQINLLKRQGDLRIINRPVDSYLEAAAIIRRSTETKAPVPLMTNIKGYPGCSIVGGLAALSSNPEYPLSRVAMSLGLSTTASAQSIVQYLIDGLKKTPYLPVEIDSNSAPCKQNILRGEDASLAHFPIPQVHQHDGNRYVNTWGVFIVESPDGQWCNWSIQRVQYLNDRQMIALVFPSQHISDIWEEWVKIGKPMPYALVQGCEPIVPYIAGLPLLERNVNEAEYIGALYGKGIEVVKCETHDLRVPASSEVVIEGYFAITREGVEGPFGEFAGYTPPETSLEPILSITAISWQDDPIWPVVAEGKPVDEYHTCTGIGDAAAIQNVLLTANLPVSFVWVPLYSACHLMIVSINRHWRQTHPDLTSEQLTKKVGDVIHQTRMHIKLPRIVVLDDDVDPADTESLLWALATRIHPERKRYFYESAIFPWLNCYSEEERHNRKGKRVIIDALLPENHGAISSFDYAYPDDIKQRVLMHWETDFSHD
B6: L222V-E224P-I283T-N285P-N287T-Q290E-S322T-N388M-K394R-C430A-i430aG-L432F-L434W-S436N-dG462 (protein)
chain: MFLKSLREQINLLKRQGDLRIINRPVDSYLEAAAIIRRSTETKAPVPLMTNIKGYPGCSIVGGLAALSSNPEYPLSRVAMSLGLSTTASAQSIVQYLIDGLKKTPYLPVEIDSNSAPCKQNILRGEDASLAHFPIPQVHQHDGNRYVNTWGVFIVESPDGQWCNWSIQRVQYLNDRQMIALVFPSQHISDIWEEWVKIGKPMPYALVQGCEPIVPYIAGLPVLPRNVNEAEYIGALYGKGIEVVKCETHDLRVPASSEVVIEGYFAITREGVEGPFGEFAGYTPPETSLEPILSITAISWQDDPIWPVVAEGKPVDEYHTCTGIGDAAAIQNVLLTANLPVSFVWVPLYSACHLMIVSINRHWRQTHPDLTSEQLTKKVGDVIHQTRMSIKLPRIVVLDDDVDPADTESLLWALATRIHPERKRYFYESAIFPWLNCYSEEERHNRKGKRVIIDALLPENHGAISSFDYAYPDDIKQRVLMHWETDFSHD
B7: H141C-I283T-N285P-N287T-Q290E-S322T-N388M-S389H-K394R-C430A-i430aG-L432F-L434W-S436N-dG462 (protein)
chain: MFLKSLREQINLLKRQGDLRIINRPVDSYLEAAAIIRRSTETKAPVPLMTNIKGYPGCSIVGGLAALSSNPEYPLSRVAMSLGLSTTASAQSIVQYLIDGLKKTPYLPVEIDSNSAPCKQNILRGEDASLAHFPIPQVHQCDGNRYVNTWGVFIVESPDGQWCNWSIQRVQYLNDRQMIALVFPSQHISDIWEEWVKIGKPMPYALVQGCEPIVPYIAGLPLLERNVNEAEYIGALYGKGIEVVKCETHDLRVPASSEVVIEGYFAITREGVEGPFGEFAGYTPPETSLEPILSITAISWQDDPIWPVVAEGKPVDEYHTCTGIGDAAAIQNVLLTANLPVSFVWVPLYSACHLMIVSINRHWRQTHPDLTSEQLTKKVGDVIHQTRMHIKLPRIVVLDDDVDPADTESLLWALATRIHPERKRYFYESAIFPWLNCYSEEERHNRKGKRVIIDALLPENHGAISSFDYAYPDDIKQRVLMHWETDFSHD
B8: H141C-I283T-N285P-N287T-Q290E-S322T-I330V-N388M-S389H-K394R-C430A-i430aG-L432F-L434W-S436N-dG462 (protein)
chain: MFLKSLREQINLLKRQGDLRIINRPVDSYLEAAAIIRRSTETKAPVPLMTNIKGYPGCSIVGGLAALSSNPEYPLSRVAMSLGLSTTASAQSIVQYLIDGLKKTPYLPVEIDSNSAPCKQNILRGEDASLAHFPIPQVHQCDGNRYVNTWGVFIVESPDGQWCNWSIQRVQYLNDRQMIALVFPSQHISDIWEEWVKIGKPMPYALVQGCEPIVPYIAGLPLLERNVNEAEYIGALYGKGIEVVKCETHDLRVPASSEVVIEGYFAITREGVEGPFGEFAGYTPPETSLEPILSITAISWQDDPIWPVVAEGKPVDEYHTCTGIGDAAAVQNVLLTANLPVSFVWVPLYSACHLMIVSINRHWRQTHPDLTSEQLTKKVGDVIHQTRMHIKLPRIVVLDDDVDPADTESLLWALATRIHPERKRYFYESAIFPWLNCYSEEERHNRKGKRVIIDALLPENHGAISSFDYAYPDDIKQRVLMHWETDFSHD
B9: I283T-N285P-N287T-Q290E-S322T-I330V-N388M-S389H-K394R-C430A-i430aG-L432F-L434W-S436N-V451S-dG462 (protein)
chain: MFLKSLREQINLLKRQGDLRIINRPVDSYLEAAAIIRRSTETKAPVPLMTNIKGYPGCSIVGGLAALSSNPEYPLSRVAMSLGLSTTASAQSIVQYLIDGLKKTPYLPVEIDSNSAPCKQNILRGEDASLAHFPIPQVHQHDGNRYVNTWGVFIVESPDGQWCNWSIQRVQYLNDRQMIALVFPSQHISDIWEEWVKIGKPMPYALVQGCEPIVPYIAGLPLLERNVNEAEYIGALYGKGIEVVKCETHDLRVPASSEVVIEGYFAITREGVEGPFGEFAGYTPPETSLEPILSITAISWQDDPIWPVVAEGKPVDEYHTCTGIGDAAAVQNVLLTANLPVSFVWVPLYSACHLMIVSINRHWRQTHPDLTSEQLTKKVGDVIHQTRMHIKLPRIVVLDDDVDPADTESLLWALATRIHPERKRYFYESAIFPWLNCYSEEERHNRKGKRSIIDALLPENHGAISSFDYAYPDDIKQRVLMHWETDFSHD
B10: I283T-N285P-N287T-Q290E-S322T-I330V-N388M-S389H-K394R-C430A-i430aG-L432F-L434W-S436N-dG462 (protein)
chain: MFLKSLREQINLLKRQGDLRIINRPVDSYLEAAAIIRRSTETKAPVPLMTNIKGYPGCSIVGGLAALSSNPEYPLSRVAMSLGLSTTASAQSIVQYLIDGLKKTPYLPVEIDSNSAPCKQNILRGEDASLAHFPIPQVHQHDGNRYVNTWGVFIVESPDGQWCNWSIQRVQYLNDRQMIALVFPSQHISDIWEEWVKIGKPMPYALVQGCEPIVPYIAGLPLLERNVNEAEYIGALYGKGIEVVKCETHDLRVPASSEVVIEGYFAITREGVEGPFGEFAGYTPPETSLEPILSITAISWQDDPIWPVVAEGKPVDEYHTCTGIGDAAAVQNVLLTANLPVSFVWVPLYSACHLMIVSINRHWRQTHPDLTSEQLTKKVGDVIHQTRMHIKLPRIVVLDDDVDPADTESLLWALATRIHPERKRYFYESAIFPWLNCYSEEERHNRKGKRVIIDALLPENHGAISSFDYAYPDDIKQRVLMHWETDFSHD

This assay relates to 3-methylcrotonic acid. It counts as biochemical, Yersinia frederiksenii. Set-up: key: “+” representing a low increase in activity; “++++” representing a high increase in activity.
With B1, the “Activity relative to WT” value is reported as “++++”.
With B2, the “Activity relative to WT” value was “++++”.
For B3 the value was “++++”; for B4, “++++”.
For B5, the “Activity relative to WT” value is on record as “++++”.
As for B6, the entry is “++++”; as for B7, “++++”.
As for B8, the entry is “++++”; as for B9, “++++”.
For B10 the value was “++++”.
